Experiment in all cases: purified protein
Substrate in data set [1]: NC(=O)c1ncn([C@@H]2O[C@H](COP(=O)(O)O)[C@@H](O)[C@H]2O)c1N=CN[C@@H]1O[C@H](COP(=O)(O)O)[C@@H](O)[C@H]1O
It counts as biochemical, synthetic construct. Conditions: 25 °C, HisA reaction, enzyme shows hysteresis.

Substrate in data set [2]: O=C(O)c1ccccc1N[C@@H]1O[C@H](COP(=O)(O)O)[C@@H](O)[C@H]1O
It counts as biochemical, synthetic construct. Conditions: 25 °C, TrpF reaction, PRA generated in situ from anthranilate and excess PRPP with yeast anthranilate phosphoribosyl transferase, enzyme shows hysteresis.

Substrate in data set [3]: NC(=O)c1ncn([C@@H]2O[C@H](COP(=O)(O)O)[C@@H](O)[C@H]2O)c1N=CN[C@@H]1O[C@H](COP(=O)(O)O)[C@@H](O)[C@H]1O
It counts as biochemical, Thermotoga maritima. Conditions: 25 °C, HisA reaction.

Substrate in data set [4]: O=C(O)c1ccccc1N[C@@H]1O[C@H](COP(=O)(O)O)[C@@H](O)[C@H]1O
Type of data set: biochemical, Thermotoga maritima. Conditions: 25 °C, TrpF reaction, PRA generated in situ from anthranilate and excess PRPP with yeast anthranilate phosphoribosyl transferase.

Substrate in data set [5]: NC(=O)c1ncn([C@@H]2O[C@H](COP(=O)(O)O)[C@@H](O)[C@H]2O)c1N=CN[C@@H]1O[C@H](COP(=O)(O)O)[C@@H](O)[C@H]1O
Type of data set: biochemical, Desulfovibrio desulfuricans. Conditions: 25 °C, HisA reaction.

Substrate in data set [6]: O=C(O)c1ccccc1N[C@@H]1O[C@H](COP(=O)(O)O)[C@@H](O)[C@H]1O
It counts as biochemical, Desulfovibrio desulfuricans. Conditions: 25 °C, TrpF reaction, PRA generated in situ from anthranilate and excess PRPP with yeast anthranilate phosphoribosyl transferase.

Substrate in data set [7]: NC(=O)c1ncn([C@@H]2O[C@H](COP(=O)(O)O)[C@@H](O)[C@H]2O)c1N=CN[C@@H]1O[C@H](COP(=O)(O)O)[C@@H](O)[C@H]1O
It counts as biochemical, Syntrophotalea carbinolica. Conditions: 25 °C, HisA reaction.

Substrate in data set [8]: O=C(O)c1ccccc1N[C@@H]1O[C@H](COP(=O)(O)O)[C@@H](O)[C@H]1O
It counts as biochemical, Syntrophotalea carbinolica. Conditions: 25 °C, TrpF reaction, PRA generated in situ from anthranilate and excess PRPP with yeast anthranilate phosphoribosyl transferase.

B1: CA-Bact-HisA (synthetic construct) (protein)
chain: MRIIPAIDLKDGRCVRLVQGDMEKATVYNDDPLEMAKQWVEQGAEWLHVVDLDGAFAGKPVNEDVIKEIAQKVSVKVQLGGGIRDLEDIEAYLDAGVDRVIIGTVAVKNPELVREMVEKYGERIVVGIDARDGMVAVKGWKETTEVKATDLAKRFEDAGVEAIIYTDIARDGMMQGPNIEAIRELAKAVSLPVIASGGVSSLEDIEALLAIEESGVAGVIVGKALYEGRLDLREALALAKKL
notes: synthetic gene in pET24a, His-tag (HisTrap), E. coli BL21-Gold (DE3)
One may read the Km as the concentration of substrate that gives half-maximal velocity. As a reminder, the kcat is the maximal rate divided by the concentration of active sites. As a reminder, the kcat/Km is the second-order rate constant that governs catalysis at low substrate concentration. With B1, in “purified protein [1]”, the Km is 0.5 µM, the kcat was determined as 0.05 s⁻¹ and the catalytic efficiency (kcat/Km) is 100000 M⁻¹ s⁻¹. Moreover, in the data set “purified protein [2]”, the Km came to 3.2 µM, the kcat came to 0.00023 s⁻¹ and the kcat/Km stood at 70 M⁻¹ s⁻¹.

B2: tmHisA (Thermotoga maritima MSB8) (protein)
chain: MLVVPAIDLFRGKVARMIKGRKENTIFYEKDPVELVEKLIEEGFTLIHVVDLSNAIENSGENLPVLEKLSEFAEHIQIGGGIRSLDYAEKLRKLGYRRQIVSSKVLEDPSFLKSLREIDVEPVFSLDTRGGRVAFKGWLAEEEIDPVSLLKRLKEYGLEEIVHTEIEKDGTLQEHDFSLTKKIAIEAEVKVLAAGGISSENSLKTAQKVHTETNGLLKGVIVGRAFLEGILTVEVMKRYAR
notes: full-length hisA in pET21a (NdeI/NotI), His-tag (HisTrap), E. coli BL21-CodonPlus-(DE3)-RIPL; heat step 70 °C
Turning to B2, in “purified protein [3]”, the Km turned out to be 5.6 µM, the kcat worked out at 1 s⁻¹ and the catalytic efficiency (kcat/Km) is 180000 M⁻¹ s⁻¹. The Km in the data set “purified protein [4]” was found to be 60 µM.

B3: ddHisA (Desulfovibrio desulfuricans ATCC 27774) (protein)
chain: MIIFPAVDIQNGKAVRLKQGRAHESTVFAESPVDAARAWEEAGARWLHVVDLDGAFDGAAQSRRIVRDICAALAIPVQLGGGIRDMHTAEAYLEAGVSRLIIGTLALEQPTLFADMCRAFPGRVGVSLDAEGGRLKSRGWVEDTGMTVDTALPRLLDDGAAFVIYTDIERDGMQCGVNVAALEHLARLSTVPVIAAGGVATLEDIQKLYPLTLETSLMGAVSGRALYEGTLDLKEANAWIDARKNTPESA
notes: full-length hisA in pET24a (NdeI/XhoI), His-tag (HisTrap), E. coli T7 Express with pRARE
Turning to B3, in the data set “purified protein [5]”, the Michaelis-Menten constant (Km) is 2.8 µM, the catalytic constant (kcat) was 1.3 s⁻¹ and the kcat/Km stood at 460000 M⁻¹ s⁻¹. In the data set “purified protein [6]”, the Km was determined as 161 µM, the kcat is 0.0023 s⁻¹ and the specificity constant (kcat/Km) worked out at 14 M⁻¹ s⁻¹.

B4: pcHisA (Syntrophotalea carbinolica DSM 2380) (protein)
chain: MIVIPAIDLKEGRCVRLEQGLMEKDTVYNDNPGAQARSWQEQGGELLHIVDLDGAFAGVPRNRDAIRAIAEAVSIPTELGGGIRDLPTIEAYLELGIDRVILGTVAKENPELVREACRLFPGRIVVGIDARDGLVAVRGWADVTEKLATELAKEMEGFGVEAIIYTDIARDGMMGGPNLEATRALAESISVPVIASGGVSCLEDIARLMTIEDSGVTGVITGKALYTGSLDLREAVALTKGKA
notes: as for B3
In the case of B4, in the data set “purified protein [7]”, the Km came out at 1.8 µM, the kcat was 0.4 s⁻¹ and the specificity constant (kcat/Km) was determined as 220000 M⁻¹ s⁻¹. For the same protein, in the data set “purified protein [8]”, the Michaelis-Menten constant (Km) stood at 303 µM, the catalytic constant (kcat) was determined as 0.001 s⁻¹ and the kcat/Km amounted to 3 M⁻¹ s⁻¹.

These data come from article PMC4732765, “Long-Term Persistence of Bi-functionality Contributes to the Robustness of Microbial Life through Exaptation” (PLoS Genetics, 2016).
